Ends that are not written are not given here.
What was measured:
A1PI [1] = target: T1, A1PI (Homo sapiens, UniProt P01009); test: A1PI purification from 5 mg hSA + 1 mg A1PI on peptide column, A1PI mass balance; assay type: binding; details: A1PI, 5 mg hSA + 1 mg A1PI; for Percent Eluted by Fraction, 1M NaCl / Percent Eluted by Fraction, 2% Ac. Acid / Percent Eluted by Fraction, 3M NaCl / Percent Eluted by Fraction, Flow: relative to total eluted
T1 construct: Human plasma is currently the only approved source of therapeutic AlPI
T1 sequence (P01009 25-418): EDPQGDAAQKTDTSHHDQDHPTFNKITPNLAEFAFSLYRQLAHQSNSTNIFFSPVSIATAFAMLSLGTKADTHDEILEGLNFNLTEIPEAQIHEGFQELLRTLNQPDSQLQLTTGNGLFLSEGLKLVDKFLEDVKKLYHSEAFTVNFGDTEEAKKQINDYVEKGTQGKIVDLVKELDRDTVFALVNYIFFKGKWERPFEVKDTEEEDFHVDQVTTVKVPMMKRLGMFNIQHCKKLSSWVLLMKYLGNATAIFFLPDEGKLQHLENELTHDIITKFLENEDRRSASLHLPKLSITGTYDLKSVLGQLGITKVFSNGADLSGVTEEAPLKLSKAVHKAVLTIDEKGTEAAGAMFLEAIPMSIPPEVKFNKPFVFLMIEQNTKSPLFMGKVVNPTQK
Protocol: (§1) Confirmatory binding assays were performed in a column chromatographic format on a microbore HPLC using individual peptide sequences synthesized directly onto the Toyopearl 650 M Chelate resin which had been modified with Totda followed by an alanine residue (A-Totda-Toyopearl), at a final substitution density of 0.1 mmole/g resin. The resin was packed into 0.4×5 cm columns (Thomson, Springfield, Va.) and tested on the Michrom HPLC system (Michrom BioResources, Auburn, Calif.). The elution program for all trials utilized the following method. The column was pre-equilibrated with equilibration buffer (as above). 1 ml of sample was injected and allowed sufficient time to flowthrough the column using equilibration buffer. The column was then washed with step elutions of 1M NaCl and 3M NaCl in equilibration buffer. The column was exposed to equilibration buffer with 0.1M NaCl. Any remaining protein was eluted with elution buffer (2% by volume glacial acetic acid in water).
(§2) A Gilson FC204 fraction collector at the HPLC outlet collected individual eluates for further analysis. Fractions collected from the 2% acetic acid eluates were neutralized with 2M Tris, pH 10.5 to bring the pH to neutrality. The protein samples were reconstituted in equilibration buffer unless otherwise stated. The samples were analyzed by the integration of the absorbance at 280 nm or by immunonephelometry. The specific method of determination is presented for each figure.
Columns were assayed with a mixture of 5 mg human serum albumin (hSA)+1 mg AlPI at 4° C. (Table 4, Seq. ID 1-11, 15, 17) and 20° C. (Table 5, Seq. ID 1-10, 13, 15, 17). The chromatography method was modified to provide for a 10 minute residence time of sample in the column by decreasing the flow to 17 μl/min (10 cm/hr) upon injection. Following the incubation, the flow was set at 865 μl/min (413 cm/hr) for the step elutions of 1M NaCl, 3M NaCl, and 2% acetic acid. The mass balances presented are based upon immunonephelometry. The Percent Eluted value is protein-specific and based on the amount of the protein eluted in a […]

A1PI [2] = target: T1, A1PI; test: A1PI binding on peptide-resin column, injection of 1 mg A1PI in equilibration buffer; details: for Percent A1PI Eluted by Fraction Based on Absorbance at 280 nm, 1M NaCl / Percent A1PI Eluted by Fraction Based on Absorbance at 280 nm, 2% Acetic Acid / Percent A1PI Eluted by Fraction Based on Absorbance at 280 nm, Flowthrough / Percent A1PI Eluted by Fraction, 1M NaCl / Percent A1PI Eluted by Fraction, 2% Acetic Acid / Percent A1PI Eluted by Fraction, Flowthrough: 1 mg A1PI in equilibration buffer; for % of Total A1PI Eluted by Fraction (Based on Absorbance at 280 nm), 1M NaCl / % of Total A1PI Eluted by Fraction (Based on Absorbance at 280 nm), 2% Acetic Acid / % of Total A1PI Eluted by Fraction (Based on Absorbance at 280 nm), Flowthrough: 1 mg A1PI
Protocol: as §1, §2
Tables 2 and 3 present the elution profiles for 19 sequences based on the injection of 1 mg AlPI in equilibration buffer at 4° C. and 20° C., respectively. The columns were run at a constant flow rate of865 μl/min (413 cm/hr) or 523 μl/min (250 cm/hr). No dependence of the elution profile with flow rate was found. The Percent AlPI Eluted by Fraction represents the amount eluted in the flowthrough, 1M NaCl wash, and 2% acetic acid fractions relative to the total AlPI eluted. The percentages are based on either the integration of the peak areas at […]

[3] = 20° C., * Below detection limit
[4] = VIWLVR N-terminal point mutations, 4° C.

% of Total A1PI Eluted by Fraction (Based on Absorbance at 280 nm), 1M NaCl (A1PI [2]; VIFLVR point mutations, 4° C.) | % of Total A1PI Eluted by Fraction (Based on Absorbance at 280 nm), 2% Acetic Acid (A1PI [2]; VIFLVR point mutations, 4° C.) | % of Total A1PI Eluted by Fraction (Based on Absorbance at 280 nm), Flowthrough (A1PI [2]; VIFLVR point mutations, 4° C.) | % of Total A1PI Eluted by Fraction (Based on Absorbance at 280 nm), 1M NaCl (A1PI [2]; VIFLVR point mutations, 20° C.) | % of Total A1PI Eluted by Fraction (Based on Absorbance at 280 nm), 2% Acetic Acid (A1PI [2]; VIFLVR point mutations, 20° C.) | % of Total A1PI Eluted by Fraction (Based on Absorbance at 280 nm), Flowthrough (A1PI [2]; VIFLVR point mutations, 20° C.) | other results | Substance
– | – | – | – | – | – | Mass Protein per Eluate Fraction, 1M NaCl (A1PI [1]; 4° C., * Below detection limit): 0.68 mg; Mass Protein per Eluate Fraction, Flow (A1PI [1]; 4° C., * Below detection limit): 0.03 mg; Percent Eluted by Fraction, 1M NaCl (A1PI [1]; 4° C.): 96%; Percent Eluted by Fraction, 2% Ac. Acid (A1PI [1]; 4° C.): 0%; Percent Eluted by Fraction, 3M NaCl (A1PI [1]; 4° C.): 0%; Percent Eluted by Fraction, Flow (A1PI [1]; 4° C.): 4%; Mass Protein per Eluate Fraction, 1M NaCl (A1PI [1]; [3]): 0.58 mg; Mass Protein per Eluate Fraction, 2% Ac. Acid (A1PI [1]; [3]): 0.11 mg; Mass Protein per Eluate Fraction, 3M NaCl (A1PI [1]; [3]): 0.00 mg; Percent Eluted by Fraction, 1M NaCl (A1PI [1]; 20° C.): 83%; Percent Eluted by Fraction, 2% Ac. Acid (A1PI [1]; 20° C.): 17%; Percent Eluted by Fraction, 3M NaCl (A1PI [1]; 20° C.): 0%; Percent Eluted by Fraction, Flow (A1PI [1]; 20° C.): 0%; Percent A1PI Eluted by Fraction Based on Absorbance at 280 nm, 1M NaCl (A1PI [2]; 4° C.): 94%; Percent A1PI Eluted by Fraction Based on Absorbance at 280 nm, 2% Acetic Acid (A1PI [2]; 4° C.): 6%; Percent A1PI Eluted by Fraction Based on Absorbance at 280 nm, Flowthrough (A1PI [2]; 4° C.): 0%; Percent A1PI Eluted by Fraction, 1M NaCl (A1PI [2]; 20° C.): 81%; Percent A1PI Eluted by Fraction, 2% Acetic Acid (A1PI [2]; 20° C.): 19%; Percent A1PI Eluted by Fraction, Flowthrough (A1PI [2]; 20° C.): 0% | IWRKYS
– | – | – | – | – | – | % of Total A1PI Eluted by Fraction (Based on Absorbance at 280 nm), 1M NaCl (A1PI [2]; [4]): 94%; % of Total A1PI Eluted by Fraction (Based on Absorbance at 280 nm), 2% Acetic Acid (A1PI [2]; [4]): 6%; % of Total A1PI Eluted by Fraction (Based on Absorbance at 280 nm), Flowthrough (A1PI [2]; [4]): 0% | SSWLVR: point mutation of VIWLVR on Ala-Totda-Toyopearl (not fully specified (C-terminus))
55% | 45% | 0% | 8% | 92% | 0% | – | V A F L V R: point mutation of VIFLVR, position 2 (VAFLVR)
35% | 65% | 0% | – | – | – | – | V H F L V R: point mutation of VIFLVR, position 2 (VHFLVR)
– | – | – | – | – | – | % of Total A1PI Eluted by Fraction (Based on Absorbance at 280 nm), 1M NaCl (A1PI [2]; Trp position mutations, 4° C.): 0%; % of Total A1PI Eluted by Fraction (Based on Absorbance at 280 nm), 2% Acetic Acid (A1PI [2]; Trp position mutations, 4° C.): 0%; % of Total A1PI Eluted by Fraction (Based on Absorbance at 280 nm), Flowthrough (A1PI [2]; Trp position mutations, 4° C.): 100%; % of Total A1PI Eluted by Fraction (Based on Absorbance at 280 nm), 1M NaCl (A1PI [2]; Trp position mutations, 20° C.): 0%; % of Total A1PI Eluted by Fraction (Based on Absorbance at 280 nm), 2% Acetic Acid (A1PI [2]; Trp position mutations, 20° C.): 16%; % of Total A1PI Eluted by Fraction (Based on Absorbance at 280 nm), Flowthrough (A1PI [2]; Trp position mutations, 20° C.): 84% | V I D L V R: VIWLVR with Trp at position 3 replaced by Asp (VIDLVR)
46% | 54% | 0% | 11% | 89% | 0% | – | V I F A V R: point mutation of VIFLVR, position 4 (VIFAVR)
25% | 75% | 0% | 0% | 25% | 75% | – | V I F L A R: point mutation of VIFLVR, position 5 (VIFLAR)
3% | 56% | 40% | – | – | – | – | V I F L F R: point mutation of VIFLVR, position 5 (VIFLFR)
4% | 40% | 56% | 3% | 20% | 77% | – | V I F L Y R: point mutation of VIFLVR, position 5 (VIFLYR)
– | – | – | – | – | – | % of Total A1PI Eluted by Fraction (Based on Absorbance at 280 nm), 1M NaCl (A1PI [2]; Trp position mutations, 4° C.): 90%; % of Total A1PI Eluted by Fraction (Based on Absorbance at 280 nm), 2% Acetic Acid (A1PI [2]; Trp position mutations, 4° C.): 10%; % of Total A1PI Eluted by Fraction (Based on Absorbance at 280 nm), Flowthrough (A1PI [2]; Trp position mutations, 4° C.): 0%; % of Total A1PI Eluted by Fraction (Based on Absorbance at 280 nm), 1M NaCl (A1PI [2]; Trp position mutations, 20° C.): 45%; % of Total A1PI Eluted by Fraction (Based on Absorbance at 280 nm), 2% Acetic Acid (A1PI [2]; Trp position mutations, 20° C.): 55%; % of Total A1PI Eluted by Fraction (Based on Absorbance at 280 nm), Flowthrough (A1PI [2]; Trp position mutations, 20° C.): 0% | V I R L V R: VIWLVR with Trp at position 3 replaced by Arg (VIRLVR)
66% | 34% | 0% | 49% | 51% | 0% | – | V K F L V R: point mutation of VIFLVR, position 2 (VKFLVR)
39% | 61% | 0% | – | – | – | – | V R F L V R: point mutation of VIFLVR, position 2 (VRFLVR)
2% | 21% | 77% | 0% | 8% | 92% | binding of AlPI (in words) (A1PI [2]): little binding of AlPI | VIFLVA: point mutation of VIFLVR, position 6, C-terminal Arg replaced with Ala
– | – | – | – | – | – | Percent A1PI Eluted by Fraction Based on Absorbance at 280 nm, 1M NaCl (A1PI [2]; 4° C.): 91%; Percent A1PI Eluted by Fraction Based on Absorbance at 280 nm, 2% Acetic Acid (A1PI [2]; 4° C.): 9%; Percent A1PI Eluted by Fraction Based on Absorbance at 280 nm, Flowthrough (A1PI [2]; 4° C.): 0%; Percent A1PI Eluted by Fraction, 1M NaCl (A1PI [2]; 20° C.): 97%; Percent A1PI Eluted by Fraction, 2% Acetic Acid (A1PI [2]; 20° C.): 3%; Percent A1PI Eluted by Fraction, Flowthrough (A1PI [2]; 20° C.): 0% | WSSKRY
